The supplement of paper PMC10126150
± gives the standard deviation of the averaged measurements.

Tested on: ATP
Experiment: switch fluorescence ratio, 500 uM ATP over buffer (Cy3 cluster intensity, sum of 5 cycles each) (fold (ratio)); higher = stronger signal-on switching upon ATP binding; sequences stand for … in TCGTCGGCAGCGTCAGATGTGTATAAGAGACAGTTTTTTTTTTTTTTTTTTTTTTTTT…TC
Conditions: aptamer strand: ATP DNA aptamer (quencher-CACCTGGGGGAGTATTGCGGAGGAAGG + anchor), 100 nM annealed; ATP concentration: 500 uM
Procedure, shortened: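 Imaging in selection buffer was followed by imaging after 15 min with 500 uM ATP at 22 °C, for Cy3-labelled switching-strand clusters annealed to 100 nM quencher-labelled ATP aptamer on a modified Illumina MiSeq flow-cell. Five of these buffer/ATP cycles ran, separated by NaOH stripping and re-annealing. The fluorescence ratio per cluster is summed target-cycle over summed buffer-cycle Cy3 intensity, averaged per switch-domain sequence; clusters outside 100-1000 RFU were removed.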
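Also: ATP exposure 15 min at 22 °C before imaging.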

Sequence	switch fluorescence ratio
GCTCAGGCTG	1.02 ± 0.024
GGAGTTGGG	0.968 ± 0.012
ATGGTGGGT	0.978 ± 0.033
GAGTGTCAGC	1 ± 0.035
GCTAATTTGC	0.98953 ± 0.00037
ATTATTCTTT	1.01 ± 0.061
TTAAAGGCTT	0.997 ± 0.019
ACGTCTTACT	1.101 ± 0.0018
TTTGGGATAC	1.24 ± 0.28
AGTGTTTGGT	0.989 ± 0.021
TACAGGGGTC	1.06 ± 0.019
GGAGGAGGCA	0.997 ± 0.033
TTTGGCGAAA	1.01 ± 0.019
CTAGGTTTTG	0.995 ± 0.047
TTCTTGGGGG	1.01 ± 0.029
TGATTTGGGG	0.9675 ± 0.0076
GAGTAATTGT	0.9975 ± 0.0042
AAGATGAGGT	1.01 ± 0.021
TGTCGGAGGG	0.973 ± 0.065
CCTAAGGGGG	1.04 ± 0.074
TTTAGGGTCG	1.007 ± 0.0016
ATTTAAGAAT	1.022 ± 0.0061
TTTGAAGCAT	1 ± 0.061
CATACAATTG	1.06 ± 0.091
GCTATAGACT	1.02 ± 0.067

Sequence	switch fluorescence ratio
TCGTCAAAGA	1.07 ± 0.023
TTTTTATCTA	1.01 ± 0.036
CGGCAGCTGA	1 ± 0.011
AACGCTTATT	1.09 ± 0.064
GCCTTGAGGA	0.997 ± 0.018
TCATCTGCTG	1.17 ± 0.087
CAGAGTACGT	1.036 ± 0.0091
TTTTGCCTAT	1 ± 0.025
ACCTTTTTAT	1.02 ± 0.038
TCGGTCCAGG	1.39 ± 0.14
CTGGGCGGTG	0.9982 ± 0.0052
TGAAAAGGGG	0.998 ± 0.052
TATTTTGTTT	0.99 ± 0.014
AGGCGGGCAG	1.039 ± 0.004
AGGGATAATT	0.975 ± 0.027
TTTTATGCGG	0.974 ± 0.019
CTGGCACAGA	0.988 ± 0.019
TGTGAATTCG	1.01 ± 0.024
CTAGGTCTGT	1 ± 0.011
ATGGTATTTT	1.01 ± 0.013
TTTGTTAGAT	0.993 ± 0.022
GATTATCTCG	0.99 ± 0.049
GAAGGCATTT	1.16 ± 0.28
CGTGGCGGTA	1.04 ± 0.031
TTCCATTTTT	0.984 ± 0.012

Sequence	switch fluorescence ratio
TAGGTATATT	0.97 ± 0.019
ATAAAGTCAC	1.16 ± 0.18
GTTTGCCCTG	0.99 ± 0.022
ACGTTTCCCC	1.09 ± 0.025
CGTTTAGGAC	1.1 ± 0.21
GCATGTGTAT	1.01 ± 0.031
GTGGTGCACG	0.9971 ± 0.0026
ACAGCATTTT	1.03 ± 0.0072
TTATTGCGGG	0.967 ± 0.019
GATACTATTT	0.98 ± 0.03
TACGATGTGC	1.0053 ± 0.00075
TCTAAGGGAG	0.987 ± 0.012
GATGGAACTT	1.02 ± 0.053
TTGTGTTTAT	0.965 ± 0.015
ACTAATAAGA	1.01 ± 0.019
TACAAAAAAT	1.03 ± 0.047
GCGTGTGGGC	1.071 ± 0.0066
CACTGGGGTG	1.04 ± 0.038
CATCATGTTT	0.984 ± 0.015
AGAAAAGTGG	0.985 ± 0.019
GACGAGTGTG	0.98731 ± 0.00011
ACGAGTTTTT	1.01 ± 0.021
ACTCAATCTG	1.0397 ± 0.00024
CACGTTGCCT	0.979 ± 0.052
TTCCTTAGCG	1.03 ± 0.015

Sequence	switch fluorescence ratio
GATGGAACTA	1.01 ± 0.034
TGAGCGGATG	0.994 ± 0.036
GGGTCAGTCC	0.978 ± 0.019
AAGTGGAATT	1.03 ± 0.018
TCGTTCACTG	0.9891 ± 0.007
TCTCTGGCAT	1.79 ± 0.19
GAAGGAAGGT	0.9996 ± 0.007
TTTGGGAAAG	0.978 ± 0.032
GGGCAAGAAG	1.021 ± 0.0073
GGTTGTATGG	0.975 ± 0.012
ACTATTTGTT	1.04 ± 0.027
ATGGAGTCGG	0.986 ± 0.021
TTTAACCGTC	1.06 ± 0.052
AGTTCTGGCC	1.03 ± 0.068
TGCCTTGAGA	1 ± 0.015
TCGAAGAATG	1.005 ± 0.002
CAATTCACCG	1.04 ± 0.022
TTTAGCT	1.08 ± 0.097
ACTAGTTTTC	0.9611 ± 0.0091
TCAGATGTCT	1.03 ± 0.055
ATTCGTTTTC	1.02 ± 0.024
TATACTACGG	1.09 ± 0.024
GATAACATGT	1.02 ± 0.029
CTCTGTGACG	1.03 ± 0.012
GGTTGCAGGG	1.01 ± 0.011

Sequence	switch fluorescence ratio
CTGTGTGCAG	1.01 ± 0.034
TCGGACCCTA	1.03 ± 0.041
TGAGGCTGGG	1.02 ± 0.054
AAATAACTTT	1.027 ± 0.0051
ATGTGTCAAG	0.9675 ± 0.0065
TAATTTGGTG	1.043 ± 0.0083
TTTTAGTGTT	1 ± 0.013
CCTTACCTTG	1.04 ± 0.041
GCGAACTTGG	0.977 ± 0.016
AGTTGGGTGT	1.01 ± 0.013
ATTCGTTACT	1.03 ± 0.051
GCCCTGGGGA	2.74 ± 2.4
TTGGTTCCGC	1.53 ± 0.48
GTTGCAATTT	1.16 ± 0.13
AAGTCCTTGT	1.02 ± 0.013
ACGTCTTAGT	1 ± 0.021
TTGGGAGGTT	0.968 ± 0.025
ATGGTTGTTC	1.07 ± 0.16
AGGGGATGAA	1.04 ± 0.027
GGGGGACGGG	1.02 ± 0.029
GGTCCTGGTT	0.9859 ± 0.0021
GGGGTGAATC	1.03 ± 0.045
AAAAATGGAG	0.958 ± 0.017
CTCGTGTTGG	0.989 ± 0.018
CTGCGACTGT	1.026 ± 0.0099

Sequence	switch fluorescence ratio
ATATTACGGG	1.03 ± 0.039
ATGTTTTATG	0.992 ± 0.042
GGGAGTTTCG	1.06 ± 0.095
CAATATGCCG	0.968 ± 0.026
ACAAACGGCA	1.33 ± 0.024
TAGGCATTTG	1.006 ± 0.0069
GTTGTGGTGT	1.02 ± 0.014
CACCAGTCAA	1.56 ± 0.33
CGTTGGATT	0.986 ± 0.017
TTCAGAAGCC	1.12 ± 0.061
AGAAGAATTT	1.02 ± 0.016
GGGAAGCGCC	0.9967 ± 0.0032
ATCCTCGATT	0.964 ± 0.0095
AAAACCAGGG	1.08 ± 0.033
AAGGGGGATG	1.01 ± 0.035
TTTAAATGCG	0.985 ± 0.041
GGGTTTATAA	0.987 ± 0.023
AAAGGACGAG	0.983 ± 0.019
TTCCGGTCTT	1.03 ± 0.066
TGATGTAGAG	0.99 ± 0.029
AAACGGGCAG	0.985 ± 0.019
AGTATATGCC	1 ± 0.034
TTTACGGCCC	1.07 ± 0.12
GTAGGGGTTG	1.01 ± 0.053
ATGTAGGCGT	0.967 ± 0.021

Sequence	switch fluorescence ratio
TGCTATTATG	0.988 ± 0.048
CGTGCGGCTG	1.028 ± 0.0066
TTAGAGCTTT	0.975 ± 0.021
CCTACGTGGT	4.49 ± 0.15
GAAGAAAGCG	1.007 ± 0.0094
GTAAGTAGCG	0.968 ± 0.02
ACGGGCCGGT	0.98 ± 0.069
TTTATACCAA	1.038 ± 0.0089
TTTAAAACGC	1.01 ± 0.099
TCGGCAGGGG	1.09 ± 0.035
TGTTTATGAG	0.9849 ± 0.0034
GGGGAAGCGC	1.01 ± 0.068
AGTAAGGTTG	0.961 ± 0.054
GGGGACAGTG	1.01 ± 0.13
GGGTTAGCCT	0.999 ± 0.011
TGAGTCGTTG	0.972 ± 0.01
TGATCATACT	1.035 ± 0.0046
TGGGAAATGT	1.1 ± 0.23
CACCGACTTT	1.06 ± 0.0014
GTTTTGGTAT	1.01 ± 0.0052
CTAGATCGGT	0.982 ± 0.051
CAGGGGTATT	1.32 ± 0.42
GCGAGTCTCA	1.007 ± 0.01
AAATCGATGG	0.9987 ± 0.0023
GGGAAGTATG	1 ± 0.057

Sequence	switch fluorescence ratio
AAGTTGGAGG	0.9797 ± 0.0024
AGGCAGACTT	1.004 ± 0.0089
CAAAAATTGG	1 ± 0.041
TTGGACTGGG	0.948 ± 0.082
TTTAATATGT	0.968 ± 0.024
TATAGGAAAA	1.35 ± 0.61
AGTCGGGCGC	0.983 ± 0.051
AGACGTTTTT	1 ± 0.033
TGGTGTCAGC	1.02 ± 0.013
CAATGGGTAG	0.9989 ± 0.0018
TTGATGGTAA	0.977 ± 0.022
AGGAGGGGTT	1.01 ± 0.037
TGGGGATTGG	1.17 ± 0.49
GCGATAGCAG	1.03 ± 0.036
AGAAGTGGCG	1.01 ± 0.03
CCTGGGGTAA	1.09 ± 0.039
GAGTTGTGCG	0.9969 ± 0.001
CTCTTGTATC	1.05 ± 0.063
TAATCATTGG	1.01 ± 0.065
ATAATTGGCC	0.97422 ± 0.00035
GATCGGAGGG	1.01 ± 0.027
GCTAGCCATT	0.978 ± 0.029
ATATGGTATT	0.99 ± 0.023
GACAGTTGGG	0.999 ± 0.017
CTAGAGGCGA	1.03 ± 0.026
